PMC12350838

How the values were obtained:
[1] = molecular target: BoDV-1 L-P complex (one L-protein with a tetramer of P-protein) (Borna disease virus 1 (BoDV-1)); test: cryo-EM structure; Sample 1, RNA-free: co-expressed and co-purified L-P complex used immediately after elution, 0.33 mg/ml on grids; single particle analysis with 2D and 3D classification
[2] = molecular target: BoDV-1 L-P complex (one L-protein with a tetramer of P-protein) (Borna disease virus 1 (BoDV-1)); test: cryo-EM structure; Sample 2, reaction conditions: L-P complex with 25 μM 23mer template RNA, 20 μM triphosphorylated 6mer primer, 1 mM SAM, 1 mM each NTP, 1 h on ice, diluted to 0.4 mg/ml; single particle analysis, re-extraction in a larger box and 2D classification
[3] = molecular target: Borna disease virus 1 (BoDV-1) large protein (L-protein) (Borna disease virus 1 (BoDV-1)); test: cryo-EM structure; Sample 1, RNA-free: co-expressed and co-purified L-P complex used immediately after elution, 0.33 mg/ml on grids; single particle analysis with 2D and 3D classification
[4] = molecular target: Borna disease virus 1 (BoDV-1) phosphoprotein (P-protein) (Borna disease virus 1 (BoDV-1)); test: as above

For “BoDV-1 L-P complex (one L-protein with a tetramer of P-protein)”, which percent of particles as tetramers [1] is on record?
Its percent of particles as tetramers is 0.2%.

What about the stoichiometry N [1] of the same substance?
The stoichiometry N was 4.

And the percent of particles as dimers [2]?
Its percent of particles as dimers is 6%.

And the stoichiometry N [2]?
The stoichiometry N was 2.

For “Borna disease virus 1 (BoDV-1) phosphoprotein (P-protein) (natural protein)”, which stoichiometry N (P-protein chains per L-protein) [3] is on record?
The stoichiometry N (P-protein chains per L-protein) was 4.

And the stoichiometry N [4]?
Its stoichiometry N is 4.
